US6001823A, “Treatment or prophylaxis of diseases caused by pilus-forming bacteria” (priority 1995, dated 1999)
Entries after “also recorded” stand apart in the source; their conditions may differ.

Tests used:
PapD [1] = target: T1, PapD (Escherichia coli, UniProt P15319); experiment: ELISA: PapD binding to peptides coated on microtiter wells; design: made in house; species or system E. coli; details: for binding of PapD to immobilized peptide: peptide coated on microtiter wells, ELISA; for reduction of binding of PapD to the immobilized peptide: variant of the PapG carboxyl terminal peptide
T1 sequence (P15319 22-239): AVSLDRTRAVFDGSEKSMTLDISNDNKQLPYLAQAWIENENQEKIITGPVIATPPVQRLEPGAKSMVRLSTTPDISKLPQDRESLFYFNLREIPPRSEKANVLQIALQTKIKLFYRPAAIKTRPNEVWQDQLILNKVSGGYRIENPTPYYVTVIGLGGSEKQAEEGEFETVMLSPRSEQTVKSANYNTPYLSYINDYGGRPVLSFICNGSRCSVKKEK
Procedure: The residues in the peptides were numbered starting with the carboxyl terminal residue as 1, and ending with the amino terminal residue. Peptides were also synthesized which deviated in length (G1'-16'WT, G1'-11'WT, G1'-7'WT) or sequence (G2'-21'amide, G1'-19'SV, G1'-19'NH2) from the wild type PapG carboxyl terminal sequence. Using an enzyme-linked immunosorbent assay (ELISA), we tested the ability of PapD to bind to each peptide coated on wells of microtiter plates:
5 mg/ml stock solutions of peptides in water or 50% acetic acid were diluted to a concentration of 2.5 pmol/50 μl in PBS. 50 μl of the peptide solution was coated overnight onto microtiter wells (Nunc-Immuno Plate Maxisorp) at 4° C. The solutions in the plates were discarded, and the wells were blocked with 200 μl 3% bovine serum albumin (BSA, Sigma) in PBS (120 mM NaCl/2.7 mM KCl/10 mM phosphate buffer salts, pH 7.4) for 2 hours at 25° C. The plates were washed vigorously 3 times with PBS and incubated with 50 μl of the indicated amount of purified PapD (Lindberg et al, 1989). After 3 washes with PBS, the wells were incubated with a 1:500 dilution of anti-PapD rabbit antiserum (Lindberg et al, 1989) in 3% BSA/PBS for 45 min. at 25° C. After 3 washes with PBS, the wells were incubated with a 1:1000 dilution of goat anti-rabbit IgG coupled to alkaline phosphatase (Sigma) in 3% BSA/PBS for 45 min. at 25° C. Following 3 washes with PBS and 3 washes with developing buffer (10 mM diethanolamine pH 9.5, 0,5 mM MgCl2), 50 μl filtered p-nitrophenyl phosphate substrate (Sigma) in developing buffer (10 mg/ml) was added. The absorbance at 405 nm was read after 60 min of incubation in the dark at 25° C.

[2] = Water solubility of peptides; format: physicochemical; design: key: *: Water insoluble peptides
PapD [3] = target: T1, PapD; experiment: Soluble inhibition ELISA: peptide inhibition of PapD binding to G1'-19'WT-coated wells; design: made in house; species or system E. coli; details: for % Inhibition: 25-fold molar excess of peptide, 100 pmol/well PapD, G1'-19'WT-coated wells; for inhibition of PapD binding to immobilized G1'-19'WT by soluble peptide: peptide in solution
Procedure: In addition, the ability of water-soluble peptides to inhibit PapD binding to G1'-19'WT-coated wells in a soluble inhibition ELISA were tested, since peptide conformations may have been affected by binding to the plastic microtiter plates:
Microtiter wells were coated overnight at 4° C. with 50 μl of 2,5 pmol/50 μl of the G1'-19'WT peptide. The wells were washed with PBS and blocked with 3% bovine serum albumin (BSA). A 25-fold molar excess of each test peptide was pre-incubated with 100 pmoles PapD for 30 min. and the PapD-peptide solution was then added to the coated wells and incubated at 25° C. for 45 min in the presence of 3% BSA/PBS. The subsequent primary antibody, secondary antibody and developing steps are described above. The ability of the peptides to inhibit binding of PapD to the G1'-19'WT peptide was calculated by dividing the amount of PapD binding in the presence of peptide with the amount of PapD binding in the presence of water. 0% inhibition includes values where binding was greater than that of PapD pre-incubated with H2 O.
The % inhibition represents the percentage of PapD binding in the presence of the peptide compared to in the presence of water and are the average of two experiments performed duplicate: […]

PapD-PapG complex = target: T2, PapD-PapG complex (Escherichia coli, UniProt P15319); experiment: Reconstitution assay: restoration of PapD-PapG complex from reduced, denatured PapG; format: biochemical, E. coli; details: PapD incubated with increasing amounts of peptide
T2 construct: made in house
T2 sequence (P15319 22-239): T1 sequence (P15319 22-239)
Procedure: B: PapD incubated with the G1'-19'WT, G1'-16'WT, K1'-19'WT, and G2'-21'amide was added to reduced, denatured PapD-PapG and the amount of PapD-PapG complex restored in each sample was quantitated as described in example 2. The % inhibition represents the amount of the PapD-PapG complex restored with peptide-treated PapD compared to the amount of PapD-PapG complex restored with untreated PapD. The graph represent the average of 4 experiments. PapD and PapD-PapG complex were prepared as described in F. Lindberg et al, J. Bacteriol. 171, 6052 (1989) and S. J. Hultgren et al., Proc. Natl. Acad. Sci. U.S.A. 86, 4357 (1989).
FIG. 7: Ability of PapD Arg-8, Lys-112 and Thr-7 mutants to bind PapG and restore the PapD-PapG complex in vitro. 0.4 μg of PapD-PapG complex was reduced and denatured as described in FIG. 2B. The denatured PapD-PapG complex was then diluted with 0-630 ng purified wild type (WT) or mutant PapD. The amount of PapD-PapG restored in the samples was determined as in FIG. 2B and was graphed as a percentage of the greatest amount of PapD-PapG restored. The values graphed represent the average of 3 experiments. Wild type and mutant PapD and the PapD-PapG complex were purified as described in F. Lindberg et al, J. Bacteriol. 171, 6052 (1989) and S. J. Hultgren et al., Proc. Natl. Acad. Sci. U.S.A. 86, 4357 (1989).
As described in Kuehn et al., Proc. Natl. Acad. Sci. U.S.A. 88, 10586 (1991), native PapD is able to bind to reduced, denatured PapG and restore the PapD-PapG complex in vitro. This reconstitution assay was used to determine the ability of the peptides to inhibit PapD activity in vitro.
The PapD-peptide solution was then added to the reduced, denatured PapD-PapG, incubated at 25° C. for 10 min, and applied to an IEF 3-9 gel (Pharmacia). The amount of PapD-PapG restored in each sample was quantitated by densitometry of the silver stained IEF band corresponding to the pI of the DG complex.

PapD [4] = target: T1, PapD; experiment: Protection of PapD against tryptic cleavage by peptides; format: biochemical, E. coli; design: made in house; details: PapD preincubated with 20-fold molar excess of peptide
Procedure: A Lower: The rate of trypsin cleavage of PapD decreased upon preincubation with the G1'-19'WT, G1'-16'WT or K1'-19'WT peptides, but the G2'-21'amide peptide had no effect. 50 μg of purified PapD was preincubated for 15 min at 25° C. with a 20-fold molar excess of G1'-19'WT, G1'-16'WT, K1'-19'WT or G2'-21'amide peptides (any trypsin cleavage sites in these peptides occur at their amino termini where they were predicted not to interfere with PapD), or an equivalent volume of water. Each sample was then incubated at 37° C. with 3.2 μg of trypsin. Aliquots were removed after 0, 5, 10, 20, 30 and 40 min and boiled in SDS-PAGE sample buffer to stop the digestion. The samples were applied to 15% SDS-PAGE gels and the amount of full-length PapD remaining was determined by densitometry of Coomassie blue stained bands corresponding to full-length PapD which are shown.
400 μg of PapD was partially digested by incubation with either 4,5 μg trypsin or 0.45 μg chymotrypsin on PBS for 20 min. at 37° C. The PapD digests were applied to a C-18 HPLC column (Beckman) and 2 major fragments were eluted with a 0-100% acetonitrile gradient in 0.01% trifluoroacetic acid. The PapD fragments were identified by their molecular weight on SDS-PAGE and amino-terminal sequencing. The N-terminal amino acid sequences of the approximately 14 kDa tryptic and chymotryptic fragments were identified as residues 100-108 and 104-109 of PapD, respectively, corresponding to cleavage after Lys-99 (for trypsin) and Leu-103 (for chymotrypsin). The N-terminal sequences of the 11 and 12 kDa bands in the digests were identical to the N-terminal sequence of PapD.

PapD [5] = target: T1, PapD; experiment: ELISA: peptide inhibition of PapD binding to MBP-G1'-140' fusion protein; design: species or system E. coli; details: PapD preincubated with peptide at 1:25 ratio
Procedure: The ability of the peptides to inhibit the binding of PapD to the MBP-G1'-140' fusion protein was then investigated using the following ELISA test:
Stock solutions of MBP-G1'-140' proteins in PBS were diluted to 0.1 μM with PBS. The wells of microtiter plates were coated with 50 μl of the protein solutions overnight at 4° C. The wells were washed with PBS, and blocked with 200 μl of 3% bovine serum albumin (BSA) in PBS for 2 hours at 25° C. The plates were washed vigorously three times with PBS and incubated with 50 μl of 1-5 μM PapD proteins in 3% BSA-PBS for 45 minutes at 25° C. The PapD was preincubated with each of the peptides at a 1:25 ratio for 30 min before being added to the wells. After three washings with PBS, the wells were incubated with a 1:500 dilution of rabbit anti-PapD antiserum in 3% BSA-PBS for 45 minutes at 25° C. After three washings with PBS, the wells were incubated with a 1:1000 dilution of goat antiserum to rabbit IgG coupled to alkaline phosphatase in 3% BSA-PBS for 45 minutes at 25° C. After three washings with PBS and three washings with developing buffer (10 mM diethanolamine, 0.5 mM MgCl2), 50 μl filtered 1 mg/ml p-nitrophenyl phosphate in developing buffer was added, the reaction was incubated for 1 hour or longer if necessary in the dark at 25° C., and the absorbance at 405 nm was read.

| Substance | binding of PapD to immobilized peptide (PapD [1]) | % Inhibition (PapD [3]) [%] | inhibition of PapD binding to immobilized G1'-19'WT by soluble peptide (PapD [3]) | inhibition of restoration of the PapD-PapG complex by PapD (PapD-PapG complex) | rate of tryptic cleavage of PapD (PapD [4]) | also measured |
| --- | --- | --- | --- | --- | --- | --- |
| NH2--GILNGGDFQTTASMAMIYN--COOH (H-GILNGGDFQTTASMAMIYN-OH) [F1'-19'WT] | moderately | – | – | – | – | – |
| NH2--QNLIAGPFSATATLVASYS--COOH (H-QNLIAGPFSATATLVASYS-OH) [E1'-19'WT] | moderately | – | – | – | – | water solubility [2]: * |
| NH2--GKRKPGELSGSMTMVLSFP--CONH2 (H-GKRKPGELSGSMTMVLSFP-NH2) [G1'-19'amide] | did not affect binding | 56 | did not affect binding | – | – | – |
| NH2--YALAPNAVIPTSLALL--COOH (H-YALAPNAVIPTSLALL-OH) [MS, random hydrophobic peptide, reference compound] | no binding | 1 | – | – | – | – |
| NH2--KKLEAGNYFAVLGFRVDYE--COOH (H-KKLEAGNYFAVLGFRVDYE-OH) [H1'-19'WT] | no binding | – | – | – | – | – |
| NH2--GKRKPGELSGSMTMVLSFP--COOH (H-GKRKPGELSGSMTMVLSFP-OH) [G1'-19'WT, 19 carboxyl terminal residues of PapG] | bound well | 63 | – | inhibit restoration | decreased; also recorded: reduced the rate of tryptic cleavage | – |
| NH2--KSVVPGDYEATATFELTYR--COOH (H-KSVVPGDYEATATFELTYR-OH) [K1'-19'WT] | moderately | – | – | inhibit restoration | decreased; also recorded: reduced the rate of tryptic cleavage | – |
| NH2--GKRKPVELSGSMTMVLSSP--COOH (H-GKRKPVELSGSMTMVLSSP-OH) [G1'-19'SV] | – | – | as efficient a soluble PapD inhibitor as the peptide G1'-19'WT | – | – | reduction of binding of PapD to the immobilized peptide (PapD [1]): 36% |
| NH2--EEGKRKPGELSGSMTMVLSF--CONH2 (H-EEGKRKPGELSGSMTMVLSF-NH2) [G2'-21'amide] | reduced binding | 0 | abolished binding | no effect | no effect | reduction of binding of PapD to the immobilized peptide (PapD [1]): approximately 75% |
| H-SGSMTMVLSFP-OH [G1'-11'WT, NH2--SGSMTMVLSFP--COOH] | binds | – | – | – | – | inhibition of binding of PapD to MBP-G1'-140' fusion protein (PapD [5]): significantly more potent; water solubility [2]: * |
